Measured values: publication PMC8782417, “A PDK-1 allosteric agonist neutralizes insulin signaling derangements and beta-amyloid toxicity in neuronal cells and in vitro” (PLoS ONE, 2022)

Biological target: T1, FAM-labeled Aβ42 peptide (carboxy-fluorescein conjugated to the N' terminus), prepared as ADDL oligomers (UniProt P05067 672-713, carboxy-fluorescein (FAM) on the N-terminus; the labelled peptide was mixed with wild type Aβ42 in a 1:2 molar ratio)
T1 construct: Aβ42, the 42-residue β-amyloid peptide cut from the amyloid precursor protein (APP); Mixed with unlabelled wild type Aβ42 (1:2 molar ratio), then incubated at 4 °C for 24 hrs to oligomerise (ADDLs); also called FAM-Aβ42; FAM tagged-Aβ; source: bought: Anaspec (FAM-Aβ42); Aβ peptides from BioSource
T1 sequence (P05067 672-713): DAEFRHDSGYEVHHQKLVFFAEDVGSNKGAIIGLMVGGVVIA
Test: fluorescence polarisation; in solution; FAM-Aβ42 probe (ADDL oligomers) fixed at 200 nM, recombinant PDK-1 or Akt-1 titrated 0-10 μM (Akt 0 to 12.5 μM) until saturation; 30 min, 25°C; 100 mM NaCl, 20 mM phosphate pH7.4, 2 mM DTT, 0.1% BSA, 2% DMSO; 2 experiments each
Conditions: both partners purified

IC50: ~1000 nM
B1: Recombinant human PDK-1 (active) (enzyme, UniProt O15530 1-556, looked up)
chain: MARTTSQLYDAVPIQSSVVLCSCPSPSMVRTQTESSTPPGIPGGSRQGPAMDGTAAEPRPGAGSLQHAQPPPQPRKKRPEDFKFGKILGEGSFSTVVLARELATSREYAIKILEKRHIIKENKVPYVTRERDVMSRLDHPFFVKLYFTFQDDEKLYFGLSYAKNGELLKYIRKIGSFDETCTRFYTAEIVSALEYLHGKGIIHRDLKPENILLNEDMHIQITDFGTAKVLSPESKQARANSFVGTAQYVSPELLTEKSACKSSDLWALGCIIYQLVAGLPPFRAGNEYLIFQKIIKLEYDFPEKFFPKARDLVEKLLVLDATKRLGCEEMEGYGPLKAHPFFESVTWENLHQQTPPKLTAYLPAMSEDDEDCYGNYDNLLSQFGCMQVSSSSSSHSLSASDTGLPQRSGSNIEQYIHDLDSNSFELDLQFSEDEKRLLLEKQAGGNPWHQFVENNLILKMGPVDKRKGLFARRRQLLLTEGPHLYYVDPVNKVLKGEIPWSQELRPEAKNFKTFFVHTPNRTYYLMDPSGNAHKWCRKIQEVWRQRYQSHPDAAVQ
notes: phosphoinositide-dependent protein kinase-1 (PDK-1), human, recombinant, active; printed size 59 kDa; Commercial protein; also called phosphoinositide-dependent protein kinase-1; source: bought: Amsbio
